Laboratory results published in US12649008B2, “Peptide receptor radionuclide therapy” (The Regents of the University of California, priority 2020, dated 2026).

Assay: In vitro serum stability, human serum
Assay type: in vitro ADME
Conditions: 37° C., read-out: stability in human serum (intact radiotracer)
Experimental: Mouse or human serum (500 μl, both purchased from Millipore Sigma) was combined with an aliquot of the formulated radiotracer (100-200 μCi) and incubated at 37° C. Aliquots (100-200 μl) were drawn for analysis at 1 and 2 h post-incubation for the ^68Ga radiotracers and 1 and 24 h post-incubation for ^177Lu radiotracers, mixed with absolute ethanol (500 μl, 4° C.), and centrifuged (2300× g, 3 min) to precipitate out serum proteins. The supernatant was diluted with HPLC Solvent A and analyzed by radio-HPLC to determine the fraction of intact radiotracer as disclosed in Hausner et al., “In vitro and in vivo evaluation of the effects of aluminum [^18F]fluoride radiolabeling on an integrin αvβ6-specific peptide” Nuclear medicine and biology.

CNC(=O)C(CCCCNC(=O)C(CC(=O)O)NC(=O)CCCNC(=O)CCCc1ccc(I)cc1)NC(=O)CN1CCN2CCN3CCN(CC1)CC(=O)[O][177Lu]([O]C(=O)C2)[O]C(=O)C3 (stereo not shown) [[^177Lu]Lu DOTA-ABM-5G]
remaining at 24 h: ≥ 97%
